The record followed here is the DeepSol protein solubility set.

The nature of the series: soluble on expression in E. coli; label from the status in PepcDB or PDB records.
With “MHEYPITKRIIEISQEHANKHNAKEVKQINLVVGDYSGYVASSIELYFGIIAEGTVCENAKLNIKRVKPMLKCNECESLFVRKPFSFECPYCGGQGSPTEIGHEFYIESIEI”, the “soluble on expression in E. coli” value is listed as “soluble”. Next, “VTDASVHPDELDPEYHHHGGFPEYGPASPGAGFGQFVATMRRLQDLAVAADPGDAVWDEAAERAAALVELLSPFEADEGKAPAGRTPGLPGMGSLLLPPWTVTRYGTDGVEMRGSFSRFHVGGNSAVHGGVLPLLFDHMFGMISHAAGRPISRTAFLHVDYRRITPIDVPLIVRGRVTNTEGRKAFVCAELFDSDETLLAEGNGLMVRLLPGQP”: “soluble”. The entry for “SLSKKATYPKVMCTQHPDSASKYISTQEEPGEAIEAAVVFGCDEYMPDYEGKATPYHQNVQIVSRFIEETDLIPGKDIFITPRAPSAAQENRFRQLMVMMSIAEANHGALEYSDVQAINEFVHPMTGTVGEILDAQQHMVDVGELAKKEFGVAMEVPRIIPLIEDAPALLHAKELAENTLLSWEKRFGAAPEKFRVFLGKSDSALSFGHVASTLSCKYAISGISELDLELDTSTGIIFGAGTLPFRGHLSLKNAENFFREYRGIGTITLQSAVRYSHDKGEAEALVRLAEERLPESPEIYSGEEKEEIVNLIGIFGARYNRIIREMSCTINQLAGLLPQQRDRLMHKGTGGYSRNVPDISGLVCLCRKDVGKELSASMPAEDLNLPRAIKFTGALYSIGLPPEFIGTGTALEEAREKLGEEACERLLKKYFPSLASDLSFASGYLDLNVASRFLPEACLKEIRKDIEVLRDTFSLKVQPEPSYRILLEMMQPDLLQAGTKGNCMDEEVSQLVCSTLTKMGKIRKALG” is “not soluble”; for “MNNREKEILAILRRNPLIQQNEIADMLQISRSRVAAHIMDLMRKGRIKGKGYILTEQEYCVVVGTINMDIRGMADIRYPQSASHPGTIHCSAGGVGRNIAHNLALLGRDVHLLSVIGDDFYGEMLLEETRRAGVNVSGCVRLHGQSTSTYLAIANRDDQTVLAINDTHLLEQLTPQLLNGSRDLLRHAGVVLADCNLTAEALEWVFTLADEIPVFVDTVSEFKAGKIKHWLAHIHTLKPTLPELEILWGQAITSDADRNTAVNALHQQGVQQLFVYLPDESVYCSEKDGEQFLLTAPAHTTVDSFGADDGFMAGLVYSFLEGYSFRDSARFAVACAAISRASGSLNNPTLSADNALSLVPMV” it is “not soluble”. The entry for “MGSDKIHHHHHHMSNVDRAEIAKFEALAHRWWDRESEFKPLHEINPLRVNWIDERVSLAGKKVLDVGCGGGILSEAMALRGATVTGIDMGEAPLAVAQLHQLESGVQVEYRQITAEALAEEMPEQFDVVTCLEMLEHVPDPSSVIRACYRMVKPGGQVFFSTINRNPKAYLLAIVGAEYILKMLPRGTHDFKKFIRPSELGAWSRDAGLQVKDIIGLTYNPLTKHYKLNSDVDVNYMIQTLREE” is “not soluble”; for “MSLRSRDITLTGTYLPNTPVTLVVDGVAQVQGMTDSAGRFRLTGTLEPGRNRVYVMGEGPLASREYAVRYLPPYTDMAGHWAEAVVDALHERGVVSLYPLPRFEPEAQVTRMEFAVMVARALRLPAAEEQAPFTDVAVMPQWALLEVAAAVKAGIIKGMPDGSFAPDRLVTRAEMAAMLTRALAWAGLEVKPEAPEFADQAEIPDWAVEPVAAAVRHGLIKGYPDGTFRPGSPTTRAEAATMVHRLLQTVIGLNPEGHHHHHH” it is “soluble”; for “MCSLSAIMLLPTKLKPAYSDKRSNSSSSSSLFFNNRRSKKKNQSIVPVARLFGPAIFESSKLKVLFLGVDEKKHPSTLPRTYTLTHSDITAKLTLAISQSINNSQLQGWANRLYRDEVVAEWKKVKGKMSLHVHCHISGGHFLLDLFAKFRYFIFCKELPVVLKAFVHGDGNLLNNYPELQEALVWVYFHSNVNEFNKVECWGPLWEAVSPDGHKTETLPEARCADECSCCFPTVSSIPWSHSLSNEGVNGYSGTQTEGIATPNPEKL” it is “soluble”. Consider “MAHHHHHHPPKRAALIQNLRDSYTETSSFAVIEEWAAGTLQEIEGIAKAAVEAHATIRNSTYGRAQAEKSPEQLLGVLQRYQDLCHNVYCQAETIRTVIAIRIPEHKEADNLGVAVQHAVLKVIDELEIKTLGSGEKSGSGGAPTPIGMYALREYLSARSTVEDKLLGSVDAESGKTKGGSQSPSLLLELRQIDADFMLKVELATTHLSTMVRAVINAYLLNWKKLIQPRGGHLDVLYR”, for which the “soluble on expression in E. coli” value was “soluble”. For the sequence “MSSDDYESIDTPRVASLADMNRLPTQSRHSSYSTDDDEDVTPTPSASNSAPKNTILDPLQAQFLHPNSENSDIDEPRVQLREKKKATRAQDATVSHFLEDQVPNQKFKRRSAERHSMLAGAADFASRRSPFHLSGANGSGRWTDLFSSSRFKRKQRQELNNVPSSSYSNNDYGTYAGTQSIGGFSIASNSTGESFALSGTEDEIREEFRKIMLDKGLPEADKIISNTPLDQMKMMIENSRKQDNQAKGRSPEWVVRVLGEILKTKNIPECKQDIVTVRVQLVGQGVSFLNKFAVEVHDESGRTGADLICCLYSLVLKRLRSSEVGSKYELDLIDFLQEIVRCVRTLINTHVGLVLVLRRNSPVYSLLIQTLCVLNRREQNDHEAAEIRAIRVDVVRTCYTLIFVQHDTLSTPIEMTGQQKMFMELSLIAKAESKRLNEPVSRFRPLISCIDFLESRDPKQGMYVLLMINMMINGVDRNISDDQMWTEETMWQARMRLRSEAAKDKLHKYIEKFTTSETVNSQIRDVAQNMLTEHNADLETLMGKLENVKGEYDTLDGCFELLAANSEATGTETVLLSILQLMTLTNEDMSTKRSYMKLIETAISDILLHRTPIDPQADYKFVFEVPVAEIIDKMQDEEMAKKVRQATSAKQEAVAMQGEYWKTLCDFQKEAEELRKHINDPKIPLPPPTKMNLSAPSTSAGGSSALPPITGGPPPPPGLPPITGGPPPPPPPGGLPPITGGPPPPPPPGGLPPISGGPPPPPPPPGGCPPPPPPPPPGGFKGGPPPPPPPGMFAPMAPVIPDYLPPKKVPKVDGPMRKFPWGAHTINPRDIPRESFWVGTNEEQLTSDRMFDRLRTKFATKPAANSGTLGGVLNSKKKVKTAQVIHDDKLLQKLGILQGSIKMSHSELKLAILEVNEKVLTVGFLEQLRSAMPVEKELIDKLRAVNKAQFEEMPEGEQFVTRLLQIQGLPLRLDLVLFKMRFSEVLNELKPAMSSVMEACEEVRASEGFRTFLKLVLATGNFMGGATKNYSSAYAFDMRMLTRLVDTKDVDNRHTLLHHLIEEMKRIDPRRARFALTDFHHCIESSRVNADEIRKTVQLTENNIKKLENCLKVYKIQGERDLFDEKMRPFHEKAVKEFSTVSSMCGKMKNDWESLVKYYAFNDKKYPMEEFFADIRTFSEQYSNAWKELDAEAEAKRKEAEFETQKRKQLQQSQQERKPLQERQAINRVPRTPAAMIRVSTAADKAGVLDELERATGNADFLQTLMSATNSRTPRSGLPARTRGGGRLGGGLDRQRSRHQNALGQLQDLTGCASEPVLSGQFARSRNVPQNDLQRQNMELPSSVKPTTALDRAKAFGVGLPIGQNELKVRVRRKGQPAVPVTNINGTSQISPTHKENDPTGSSSTSSGPASSNTATSSSSGTVVPSTDDLLARLNDF”, the “soluble on expression in E. coli” value is reported as “not soluble”. Consider “MAHHHHHHMRRVVITGLGLVSPLASGVEETWKRLLAGESGARRVTEFEVDDLACQIACRIPVGDGTNGTFNPDLHMDPKEQRKVDPFIVYAVGAADQALDDAGWHPENDEDQVRTGVLIGSGIGGIEGIVEAGYTLRDKGPRRISPFFIPGRLINLASGHVSIKHKLRGPNHSVVTACATGTHAIGDAARLIAFGDADVMVAGGTESPVSRISLAGFAACKALSTERNDDPTAASRPYDEDRDGFVMGEGAGIVVLEELEHALARGAKIYAEVIGYGMSGDAFHITAPTESGEGAQRCMVAALKRAGIVPDEIDYINAHGTSTMADTIELGAVERVVGEAAAKISMSSTKSSIGHLLGAAGAAEAVFSTLAIRDNIAPATLNLDNPAAQTRIDLVPHKPRERKIDVALSNSFGFGGTNASLVLRRYTA”, for which the “soluble on expression in E. coli” value was “soluble”. As for “MSANFTDKNGRQSKGVLLLRTLAMPSDTNANGDIFGGWIMSQMDMGGAILAKEIAHGRVVTVAVESMNFIKPISVGDVVCCYGQCLKVGRSSIKIKVEVWVKKVASEPIGERYCVTDAVFTFVAVDNNGRSRTIPRENNQELEKALALISEQPLLEHHHHHH”, the “soluble on expression in E. coli” value was “not soluble”.

Take “MGSDKIHHHHHHMKTFHLTTQSRDEMVDITSQIETWIRETGVTNGVAIVSSLHTTAGITVNENADPDVKRDMIMRLDEVYPWHHENDRHMEGNTAAHLKTSTVGHAQTLIISEGRLVLGTWQGVYFCEFDGPRTNRKFVVKLLTD”: the “soluble on expression in E. coli” value is recorded as “soluble”.
